According to patent publication US20230263900A1, “DENDRIMER-DRUG CONJUGATE” (priority 2020, published 2023):

Test: Pharmacokinetic studies of RHa-5 and RHa-15, single IV or SC administration, compared with RDV
Format: in vivo, animals (mammals)
Conditions: for C0, plasma GS-441524 / C0, plasma Remdesivir / F AUC(0-inf), plasma GS-441524 / F AUC(0-inf), plasma Remdesivir / F AUC(0-last), plasma GS-441524 / F AUC(0-last), plasma Remdesivir / Clast, plasma GS-441524 / Clast, plasma Remdesivir / t1/2last, plasma GS-441524 / t1/2last, plasma Remdesivir / tlast, plasma GS-441524 / tlast, plasma Remdesivir: 6.17 mg/kg Remdesivir equivalent; for F AUC(0-inf), plasma GS-441524 / F AUC(0-inf), plasma Remdesivir / F AUC(0-last), plasma GS-441524 / F AUC(0-last), plasma Remdesivir: relative to RDV IV
Experimental: Studies were undertaken to investigate the pharmacokinetic (PK) profile of two Remdesivir dendrimer conjugates following single intravenous (IV) or subcutaneous (SC) administration, and to compare them with that of Remdesivir (RDV).
The study consisted of two phases (PK Phase 1 and PK Phase 2) in a total of 6 animals (age 36-48 months) each part separated by a washout period: • PK Phase 1: Four animals (mammals) were studied. One male and one female were administered RHa-5 (BHALys [Lys]2[Lys]2[Lys]8[Lys]16[Lys]32[(α-NH-6N-TDA-Remdesivir)32(ε-NH-COPEG2000)32] 20% Remdesivir loading w/w) (test item) intravenously; and one male and one female were administered RHa-5 subcutaneously. Blood samples were taken over a period of 7 days. A minimum washout period of 14 days took place between the last blood sampling point of the PK Phase 1 and the start of PK Phase 2. • PK Phase 2: Six animals (mammals) were studied. One male and one female were administered RHa-15 (BHALys[Lys]2[Lys]4[Lys]8[Lys]16[Lys]32[(α-NH-3′ O-TDA-Remdesivir)32(ε-NH-COPEG2000)32] 18.63% Remdesivir loading w/w) (test item) intravenously; one male and one female were administered RHa-15 subcutaneously; and one male and one female were administered RDV (reference item). Blood samples were taken over a period of 7 days.
Formulation procedure: Test items RHa-5 and RHa-15 were reconstituted in Required volume of Water for injection (WFI), until a complete solution was obtained. The required volume of WFI was slowly added to RDV formulation (a lyophilate of 3.2% w/w RDV, 96.8% and sodium sulfobutylether-β-cyclodextrin adjusted to pH 3.5 with HCl) and shaken vigorously for 30 seconds. The solution was left for 20 minutes to ensure complete dissolution.
Administration: The clinical Remdesivir loading dose in humans is 200 mg. […] Allometric conversion of the dose from humans to small mammals results in an equivalent test dose of 6.17 mg/kg Remdesivir. Test item was administered as follows:
PK Phase 1: Two animal groups (A and B) of one male and one female each were administered test item RHa-5 at a Remdesivir equivalent dose of 6.17 mg/kg. Group A were administered the test item as a slow (30 seconds) intravenous bolus; and Group B were administered the test item over 30 seconds using the subcutaneous (SC) route into the back of the animal.
PK Phase 2: Three animal groups (C, D and E) of one male and one female each were included in this study phase. Groups C and D were administered test item RHa-15 at a Remdesivir equivalent dose of 6.17 mg/kg using the IV and SC routes, respectively. Group E were administered 6.17 mg/kg of RDV intravenously. IV administrations were done as a slow (30 seconds) bolus. SC administrations were done over 30 seconds.
Sampling schedule: Blood samples for PK analysis were collected as follows: • Day 1: pre-dose and at 15 min, 30 min, 1 h, 2 h, 4 h, 6 h, and 12 h after administration. • Days 2 to 8: 24, 48, 72, and 168 h after administration.
A blood volume of 2 mL was collected at each time point from the jugular vein with a 20-21G needle into a lithium heparin tube, and transferred into a tube containing 200 μL 0.15 M citric acid. Immediately following blood collection, the blood samples were mixed gently and kept on crushed ice until centrifugation at 1500 G for 10 min at 4° C. within 30 minutes of collection. Each plasma sample was stored frozen (˜80±10° C.).
The quantification range was 0.6 to 14400 ng/mL for Remdesivir and 0.6 to 14400 ng/mL for G441524.
Non-compartmental pharmacokinetic analysis was adopted to obtain the pharmacokinetic parameters from the blood concentration profiles.
The maximum concentration, Cmax, and time of maximum concentration, Tmax, were determined as the maximum measured concentration and its associated time. The area under the plasma concentration curve from 0 hours to the time of the last measurable concentration, AUC0-last, was calculated using linear trapezoidal estimation. […]

Substance: BHALys[Lys]2[Lys]4[Lys]8[Lys]16[Lys]32[(α-NH-6N-TDA-Remdesivir)32(ε-NH-COPEG2000)32] [RHa-5]
- Release profile for plasma Remdesivir (IV and SC): excellent sustained release profile
- C0, plasma GS-441524 (IV, female (4F)): 2 ng/mL
- C0, plasma Remdesivir (IV, female (4F)): 4648 ng/mL
- F AUC(0-inf), plasma GS-441524 (IV, female (4F)): 0.8 x-fold
- F AUC(0-inf), plasma Remdesivir (IV, female (4F)): 605.7 x-fold
- F AUC(0-last), plasma GS-441524 (IV, female (4F)): 0.8 x-fold
- F AUC(0-last), plasma Remdesivir (IV, female (4F)): 667.2 x-fold
- Clast, plasma GS-441524 (IV, female (4F; RDV 6F)): 3.7 ng/mL
- Clast, plasma Remdesivir (IV, female (4F; RDV 6F)): 22.0 ng/mL
- t1/2last, plasma GS-441524 (IV, female (4F; RDV 6F)): 39.6 h
- t1/2last, plasma Remdesivir (IV, female (4F; RDV 6F)): 19.2 h
- tlast, plasma GS-441524 (IV, female (4F; RDV 6F)): 168 h
- tlast, plasma Remdesivir (IV, female (4F; RDV 6F)): 168 h
- C0, plasma GS-441524 (IV, male (1M)): 2 ng/mL
- C0, plasma Remdesivir (IV, male (1M)): 5701 ng/mL
- F AUC(0-inf), plasma GS-441524 (IV, male (1M)): 0.9 x-fold
- F AUC(0-inf), plasma Remdesivir (IV, male (1M)): 437.4 x-fold
- F AUC(0-last), plasma GS-441524 (IV, male (1M)): 0.8 x-fold
- F AUC(0-last), plasma Remdesivir (IV, male (1M)): 438.1 x-fold
- Clast, plasma GS-441524 (IV, male (1M; RDV 3M)): 3.1 ng/mL
- Clast, plasma Remdesivir (IV, male (1M; RDV 3M)): 98.7 ng/mL
- t1/2last, plasma GS-441524 (IV, male (1M; RDV 3M)): 36.6 h
- t1/2last, plasma Remdesivir (IV, male (1M; RDV 3M)): 29.5 h
- tlast, plasma GS-441524 (IV, male (1M; RDV 3M)): 168 h
- tlast, plasma Remdesivir (IV, male (1M; RDV 3M)): 168 h
- C0, plasma GS-441524 (IV, mean of male and female): 2 ng/mL
- C0, plasma Remdesivir (IV, mean of male and female): 5175 ng/mL
- Clast, plasma GS-441524 (IV, mean of male and female): 3 ng/mL
- Clast, plasma Remdesivir (IV, mean of male and female): 60 ng/mL
- t1/2last, plasma GS-441524 (IV, mean of male and female): 38.1 h
- t1/2last, plasma Remdesivir (IV, mean of male and female): 24.3 h
- tlast, plasma GS-441524 (IV, mean of male and female): 168 h
- tlast, plasma Remdesivir (IV, mean of male and female): 168 h
- F AUC(0-inf), plasma GS-441524 (IV, mean): 0.8 x-fold
- F AUC(0-inf), plasma Remdesivir (IV, mean): 521.6 x-fold
- F AUC(0-last), plasma GS-441524 (IV, mean): 1 x-fold
- F AUC(0-last), plasma Remdesivir (IV, mean): 553 x-fold
- Clast, plasma GS-441524 (SC, female (5F)): 6.5 ng/mL
- Clast, plasma Remdesivir (SC, female (5F)): 21.1 ng/mL
- tlast, plasma GS-441524 (SC, female (5F)): 168 h
- tlast, plasma Remdesivir (SC, female (5F)): 168 h
- F AUC(0-last), plasma GS-441524 (SC, female (5F)): 0.7 x-fold
- F AUC(0-last), plasma Remdesivir (SC, female (5F)): 113.8 x-fold
- Clast, plasma GS-441524 (SC, male (2M)): 8.8 ng/mL
- Clast, plasma Remdesivir (SC, male (2M)): 34.4 ng/mL
- t1/2last, plasma GS-441524 (SC, male (2M)): 61.9 h
- t1/2last, plasma Remdesivir (SC, male (2M)): 28.9 h
- tlast, plasma GS-441524 (SC, male (2M)): 168 h
- tlast, plasma Remdesivir (SC, male (2M)): 168 h
- F AUC(0-inf), plasma GS-441524 (SC, male (2M)): 1.1 x-fold
- F AUC(0-inf), plasma Remdesivir (SC, male (2M)): 146.8 x-fold
- F AUC(0-last), plasma GS-441524 (SC, male (2M)): 1.0 x-fold
- F AUC(0-last), plasma Remdesivir (SC, male (2M)): 146.9 x-fold
- Clast, plasma GS-441524 (SC, mean): 7.7 ng/mL
- Clast, plasma Remdesivir (SC, mean): 28 ng/mL
- t1/2last, plasma GS-441524 (SC, mean): 61.9 h
- t1/2last, plasma Remdesivir (SC, mean): 28.9 h
- tlast, plasma GS-441524 (SC, mean): 168 h
- tlast, plasma Remdesivir (SC, mean): 168 h
- F AUC(0-inf), plasma GS-441524 (SC, mean): 1.1 x-fold
- F AUC(0-inf), plasma Remdesivir (SC, mean): 147 x-fold
- F AUC(0-last), plasma GS-441524 (SC, mean): 1 x-fold
- F AUC(0-last), plasma Remdesivir (SC, mean): 130 x-fold
- Plasma Remdesivir t1/2 and AUC compared to RDV delivered IV (delivered IV or SC): substantially extended plasma Remdesivir t1/2 and increased AUC
